± gives the uncertainty stated by the source.
Assay: self-splicing fitness, log relative to wild type (ln ratio); higher = more splicing; Tetrahymena group I intron in knt gene, E. coli kanamycin selection, DiMSum; sequences stand for … in CUCUCU…GGAGGGAAAAGUUAUCAGGCAUGCACCUGGUAGCUAGUCUUUAAACCAAUAGAUUGCAUCGGUUUAAAAGGCAAGACCGUCAAAUUGCGGGAAAGGGGUCAACAGCCGUUCAGUACCAAGUCUCAGGGGAAACUUUGAGAUGGCCUUGCAAAGGGUAUGGUAAUAAGCUGACGGACAUGGUCCUAACCACGCAGCCAAGUCCUAAGUCAACAGAUCUUCUGUUGAUAUGGAUGCAGUUCACAGACUAAAUGUCGGUCGGGGAAGAUGUAUUCUUCUCAUAAGAUAUAGUCGGACCUCUCCUUAAUGGGAGCUAGCGGAUGAAGUGAUGCAACACUGGAGCCGCUGGGAACUAAUUUGUAUGCGAAAGUAUAUUGAUUAGUUUUGGAGUACUCGUGGUCG
Method in brief: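 DiMSum derived fitness as the error-weighted combination of fold changes across replicates, kanamycin versus no kanamycin, normalised to wild type. E. coli BL21(DE3) held the library, which randomised all eight P1ex-region intron nucleotides within the knt kanamycin-resistance gene on pET-22b(+). Six replicate transformations grew overnight at 37°C or 30°C on LB agar with or without 25 μg/mL kanamycin, also containing 100 μg/mL carbenicillin, 50 μM IPTG and 0.2% rhamnose, and pooled colonies were amplicon-sequenced on an Illumina HiSeq 2500.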

Sequence | self-splicing fitness (ln) (30 °C) | self-splicing fitness (ln) (37 °C)
GCUUAGCAAUAUUACGGGUC | -3.24 ± 0.23 | -2.31 ± 0.28
GCUUAGCAAUAUUACGGUCG | -1.78 ± 0.12 | -1.41 ± 0.16
GCUUAGCAAUAUUACGGUGG | -2.24 ± 0.19 | -2.38 ± 0.28
GCUUAGCAAUAUUACGGUUU | -1.4 ± 0.068 | -0.908 ± 0.074
GCUUAGCAAUAUUACGUAAG | -2.18 ± 0.12 | -0.181 ± 0.17
GCUUAGCAAUAUUACGUCUC | -0.196 ± 0.096 | 0.386 ± 0.1
GCUUAGCAAUAUUACGUGCC | -3.64 ± 0.35 | -0.354 ± 0.14
GGAAAGCAAUAUUACGACUG | -1.93 ± 0.15 | -0.134 ± 0.19
GGAAAGCAAUAUUACGAUAG | -3.1 ± 0.34 | -1.16 ± 0.2
GGAAAGCAAUAUUACGCAAA | -2.42 ± 0.28 | -1.05 ± 0.25
GGAAAGCAAUAUUACGCAGG | -2.91 ± 0.15 | -2.71 ± 0.22
GGAAAGCAAUAUUACGCCAG | – | -0.912 ± 0.35
GGAAAGCAAUAUUACGCCCG | -0.767 ± 0.21 | -0.0766 ± 0.23
GGAAAGCAAUAUUACGCGCG | -0.394 ± 0.08 | -0.275 ± 0.12
GGAAAGCAAUAUUACGCGUG | -0.941 ± 0.054 | -0.486 ± 0.071
GGAAAGCAAUAUUACGGCAU | -1.03 ± 0.13 | -0.672 ± 0.15
GGAAAGCAAUAUUACGGGAC | -2.53 ± 0.1 | -1.18 ± 0.11
GGAAAGCAAUAUUACGGGUU | -2.99 ± 0.13 | -0.727 ± 0.11
GGAAAGCAAUAUUACGGUUG | – | -1.2 ± 0.26
GGAAAGCAAUAUUACGGUUU | -1.02 ± 0.061 | -0.46 ± 0.082
GGAAAGCAAUAUUACGUAGA | -0.977 ± 0.1 | -1.4 ± 0.17
GGAAAGCAAUAUUACGUAUG | -2.27 ± 0.1 | -2.04 ± 0.15
GGAAAGCAAUAUUACGUCGC | -0.897 ± 0.17 | -0.926 ± 0.2
GGAAAGCAAUAUUACGUGGC | -2.85 ± 0.38 | -2.46 ± 0.34
GGAAAGCAAUAUUACGUGGG | -3.72 ± 0.19 | -1.47 ± 0.11

Sequence | self-splicing fitness (ln) (30 °C) | self-splicing fitness (ln) (37 °C)
GGAAAGCAAUAUUACGUUCA | 0.00884 ± 0.082 | 0.0862 ± 0.13
GGAAAGCAAUAUUACGUUCG | -0.612 ± 0.097 | -0.624 ± 0.14
GGAAAGCAAUAUUACGUUCU | -3.94 ± 0.21 | -3.07 ± 0.23
GGACAGCAAUAUUACGAAGG | -3.1 ± 0.24 | -2.38 ± 0.39
GGACAGCAAUAUUACGACAU | -0.378 ± 0.012 | -0.0143 ± 0.032
GGACAGCAAUAUUACGAGAA | -2.45 ± 0.36 | -1.54 ± 0.25
GGACAGCAAUAUUACGAGAG | -3.81 ± 0.18 | -2.09 ± 0.11
GGACAGCAAUAUUACGAGCA | -0.424 ± 0.47 | -0.637 ± 0.4
GGACAGCAAUAUUACGAGCG | -0.482 ± 0.081 | 0.0554 ± 0.12
GGACAGCAAUAUUACGAUGG | -2.41 ± 0.1 | -2.05 ± 0.13
GGACAGCAAUAUUACGAUUG | -1.09 ± 0.12 | -1.15 ± 0.19
GGACAGCAAUAUUACGCCAA | -0.506 ± 0.14 | -1.24 ± 0.23
GGACAGCAAUAUUACGCCUA | -0.825 ± 0.11 | -0.478 ± 0.11
GGACAGCAAUAUUACGCGAA | -1.07 ± 0.08 | -0.612 ± 0.094
GGACAGCAAUAUUACGGACC | -1.35 ± 0.19 | -1.02 ± 0.23
GGACAGCAAUAUUACGGCCG | -0.0795 ± 0.14 | -0.000523 ± 0.19
GGACAGCAAUAUUACGGGCG | -0.664 ± 0.075 | -0.0669 ± 0.09
GGACAGCAAUAUUACGGUCU | -3.84 ± 0.24 | -1.18 ± 0.2
GGACAGCAAUAUUACGUCGG | -0.852 ± 0.099 | -0.674 ± 0.14
GGACAGCAAUAUUACGUGAG | 0.177 ± 0.058 | -0.254 ± 0.062
GGACAGCAAUAUUACGUGCG | -0.326 ± 0.064 | 0.365 ± 0.087
GGACAGCAAUAUUACGUUCA | -0.478 ± 0.086 | -0.434 ± 0.1
GGACAGCAAUAUUACGUUUC | -3.16 ± 0.28 | -1.82 ± 0.32
GGAGAGCAAUAUUACGAGCA | -1.17 ± 0.35 | -1.86 ± 0.34
GGAGAGCAAUAUUACGAGUC | -3.63 ± 0.35 | –

Sequence | self-splicing fitness (ln) (30 °C) | self-splicing fitness (ln) (37 °C)
GGAGAGCAAUAUUACGAUAA | – | -0.957 ± 0.43
GGAGAGCAAUAUUACGCAUC | -3.08 ± 0.28 | -2.85 ± 0.43
GGAGAGCAAUAUUACGCGUA | -2.02 ± 0.37 | -1.42 ± 0.27
GGAGAGCAAUAUUACGGAAG | -2.47 ± 0.32 | -0.843 ± 0.41
GGAGAGCAAUAUUACGGCAU | -2.03 ± 0.22 | 0.206 ± 0.22
GGAGAGCAAUAUUACGGCCG | -3.74 ± 0.42 | -2.16 ± 0.42
GGAGAGCAAUAUUACGGGCA | -2.49 ± 0.24 | -1.22 ± 0.21
GGAGAGCAAUAUUACGGUGA | -2.27 ± 0.2 | -1.46 ± 0.21
GGAGAGCAAUAUUACGUACU | -1.1 ± 0.12 | -1.16 ± 0.14
GGAGAGCAAUAUUACGUCAA | -2.93 ± 0.31 | -3.54 ± 0.46
GGAGAGCAAUAUUACGUCCA | -2.78 ± 0.2 | -0.872 ± 0.18
GGAGAGCAAUAUUACGUGAA | -0.689 ± 0.2 | -2.2 ± 0.4
GGAGAGCAAUAUUACGUUAU | -3.27 ± 0.23 | -2.98 ± 0.32
GGAUAGCAAUAUUACGAAGU | -2.68 ± 0.29 | -2.02 ± 0.25
GGAUAGCAAUAUUACGAAUG | -2.73 ± 0.18 | -1.87 ± 0.2
GGAUAGCAAUAUUACGACCA | -0.97 ± 0.092 | -0.392 ± 0.13
GGAUAGCAAUAUUACGACGC | -0.274 ± 0.11 | 0.262 ± 0.12
GGAUAGCAAUAUUACGAGGU | -2.75 ± 0.29 | -2.7 ± 0.18
GGAUAGCAAUAUUACGAGUA | -2.54 ± 0.48 | -1.14 ± 0.16
GGAUAGCAAUAUUACGAUAA | -1.51 ± 0.19 | -1.46 ± 0.2
GGAUAGCAAUAUUACGCACA | -0.523 ± 0.12 | 0.321 ± 0.14
GGAUAGCAAUAUUACGCCGG | – | -1.28 ± 0.42
GGAUAGCAAUAUUACGCGAG | -1.38 ± 0.15 | -1.16 ± 0.14
GGAUAGCAAUAUUACGCGUU | -1.98 ± 0.42 | -2.06 ± 0.47
GGAUAGCAAUAUUACGCUCA | 0.156 ± 0.15 | -0.278 ± 0.15

Sequence | self-splicing fitness (ln) (30 °C) | self-splicing fitness (ln) (37 °C)
GGAUAGCAAUAUUACGGAGA | -2.79 ± 0.26 | -2.33 ± 0.3
GGAUAGCAAUAUUACGGCAA | -0.818 ± 0.19 | -0.178 ± 0.2
GGAUAGCAAUAUUACGGCUG | -0.385 ± 0.14 | -0.733 ± 0.18
GGAUAGCAAUAUUACGGGAC | -2.5 ± 0.24 | -2.15 ± 0.17
GGAUAGCAAUAUUACGGGAU | -3.03 ± 0.27 | -2.39 ± 0.21
GGAUAGCAAUAUUACGUAAC | -1.66 ± 0.15 | -0.538 ± 0.16
GGAUAGCAAUAUUACGUAGA | -1.01 ± 0.17 | -1.4 ± 0.21
GGAUAGCAAUAUUACGUAUU | -3.05 ± 0.2 | -2.21 ± 0.28
GGAUAGCAAUAUUACGUCAU | -2.02 ± 0.11 | -0.395 ± 0.12
GGCAAGCAAUAUUACGAAGA | -2.24 ± 0.18 | -0.478 ± 0.12
GGCAAGCAAUAUUACGACCU | -0.895 ± 0.12 | -0.997 ± 0.12
GGCAAGCAAUAUUACGCAAA | -0.878 ± 0.092 | -1.2 ± 0.097
GGCAAGCAAUAUUACGCACC | -2.15 ± 0.32 | -2.31 ± 0.24
GGCAAGCAAUAUUACGCAGC | – | -2.27 ± 0.28
GGCAAGCAAUAUUACGCAGG | -2.1 ± 0.12 | -2.29 ± 0.2
GGCAAGCAAUAUUACGCAUU | -0.374 ± 0.062 | 0.591 ± 0.081
GGCAAGCAAUAUUACGCUGG | -3.31 ± 0.23 | -2.68 ± 0.28
GGCAAGCAAUAUUACGGAAA | -1.55 ± 0.12 | -1.27 ± 0.13
GGCAAGCAAUAUUACGGCGU | -0.154 ± 0.088 | 0.316 ± 0.12
GGCAAGCAAUAUUACGGGCC | -2.85 ± 0.39 | –
GGCAAGCAAUAUUACGGUCG | -0.22 ± 0.072 | 0.553 ± 0.099
GGCAAGCAAUAUUACGUAUC | -0.35 ± 0.063 | 0.0433 ± 0.083
